# US20190169311A1
# What was measured:
# TFECDHis (human) [1] = biological target: TFECDHis (human) (UniProt P13726); experiment: ELISA, coated TFECDHis; mean of 3 experiments
# TFECDHis (human) [2] = biological target: TFECDHis (human) (UniProt P13726); experiment: cross-competition ELISA; competitor: coated 11
# TFECDHis (human) [3] = biological target: TFECDHis (human) (UniProt P13726); experiment: SPR (BIAcore 3000), antibody immobilized, TFECDHis as analyte
# TFECDHis (human) [4] = biological target: TFECDHis (human) (UniProt P13726); experiment: cross-competition ELISA; competitor: coated 092-A09
# TFECDHis (human) [5] = biological target: TFECDHis (human) (UniProt P13726); experiment: cross-competition ELISA; competitor: coated 111
# TFECDHis (human) [6] = biological target: TFECDHis (human) (UniProt P13726); experiment: cross-competition ELISA; competitor: coated 101
# TFECDHis (human) [7] = biological target: TFECDHis (human) (UniProt P13726); experiment: cross-competition ELISA; competitor: coated 44
# TFECDHis (human) [8] = biological target: TFECDHis (human) (UniProt P13726); experiment: cross-competition ELISA; competitor: coated 114
# TFECDHis (human) [9] = biological target: TFECDHis (human) (UniProt P13726); experiment: cross-competition ELISA; competitor: coated 087-Lg6
substance,measurement,setting,value
HuMab-TF-011 (antibody),EC50,TFECDHis (human) [1],0.16 nM
same,competition value (unit not given),TFECDHis (human) [2],20
same,Kd,TFECDHis (human) [3],3.15 nM
same,competition value (unit not given),TFECDHis (human) [4],21
same,competition value (unit not given),TFECDHis (human) [5],175
same,competition value (unit not given),TFECDHis (human) [6],23
same,competition value (unit not given),TFECDHis (human) [7],143
same,competition value (unit not given),TFECDHis (human) [8],19
same,competition value (unit not given),TFECDHis (human) [9],929
